Data as given in the supplement of paper PMC5998384.

Assays:
[1] = system: HeLa Kyoto; experiment: thermal stability score vs G1/S (z-score of summed log2 fold changes over temperatures); higher = more thermally stable than in G1/S
[2] = system: HeLa Kyoto; experiment: solubility in G1/S (NP-40 vs SDS abundance) (log2 ratio); higher = more soluble; settings: cell cycle stage: G1/S
[3] = system: HeLa Kyoto; experiment: solubility change mitosis vs G1/S (difference of NP-40 vs SDS log2 ratios) (log2 ratio difference); higher = more soluble in mitosis
[4] = system: HeLa Kyoto; experiment: melting temperature (median over replicates), in situ; higher = more thermally stable
[5] = cell cycle stage: early G1 (4.5 h after nocodazole release)
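Wherever melting temperature (median over replicates), in situ is given: HeLa Kyoto cells synchronized by double thymidine or nocodazole block, proteins quantified by TMT10plex mass spectrometry, three independent biological replicates.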
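Wherever solubility change mitosis vs G1/S (difference of NP-40 vs SDS log2 ratios) is given: synchronized HeLa Kyoto cells (double thymidine block for G1/S, nocodazole release for mitosis), protein amounts in NP-40 versus SDS lysates quantified by mass spectrometry, three biological replicates.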
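Wherever solubility in G1/S (NP-40 vs SDS abundance) is given: HeLa Kyoto cells arrested at G1/S by double thymidine block, proteins quantified by TMT10plex mass spectrometry in mild NP-40 versus SDS extracts, three biological replicates.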
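Wherever thermal stability score vs G1/S (z-score of summed log2 fold changes over temperatures) is given: synchronized HeLa Kyoto cells, proteins quantified by TMT10plex mass spectrometry, three biological replicates, mitosis taken 0.5 h after nocodazole release, G1/S directly after double thymidine block.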

Substance | thermal stability score [1, 5] | thermal stability score ([1]; cell cycle stage: mitosis) | solubility in G1/S (log2) [2] | solubility change mitosis (log2) [3] | melting temperature ([4]; cell cycle stage: G1/S) | melting temperature ([4]; cell cycle stage: mitosis)
MNGKRPAEPGPARVGKKGKKEVMAEFSDAVTEETLKKQVAEAWSRRTPFSHEVIVMDMDPFLHCVIPNFIQSQDFLEGLQKELMNLDFHEKYNDLYKFQQSDDLKKRREPHISTLRKILFEDFRSWLSDISKIDLESTIDMSCAKYEFTDALLCHDDELEGRRIAFILYLVPPWDRSMGGTLDLYSIDEHFQPKQIVKSLIPSWNKLVFFEVSPVSFHQVSEVLSEEKSRLSISGWFHGPSLTRPPNYFEPPIPRSPHIPQDHEILYDWINPTYLDMDYQVQIQEEFEESSEILLKEFLKPEKFTKVCEALEHGHVEWSSRGPPNKRFYEKAEESKLPEILKECMKLFRSEALFLLLSNFTGLKLHFLAPSEEDEMNDKKEAETTDITEEGTSHSPPEPENNQMAISNNSQQSNEQTDPEPEENETKKESSVPMCQGELRHWKTGHYTLIHDHSKAEFALDLILYCGCEGWEPEYGGFTSYIAKGEDEELLTVNPESNSLALVYRDRETLKFVKHINHRSLEQKKTFPNRTGFWDFSFIYYE [OGFOD1] | 1.93 | 0.186 | -0.0197 | -0.151 | 53.1 °C | 53.6 °C
MWRLPRALCVHAAKTSKLSGPWSRPAAFMSTLLINQPQYAWLKELGLREENEGVYNGSWGGRGEVITTYCPANNEPIARVRQASVADYEETVKKAREAWKIWADIPAPKRGEIVRQIGDALREKIQVLGSLVSLEMGKILVEGVGEVQEYVDICDYAVGLSRMIGGPILPSERSGHALIEQWNPVGLVGIITAFNFPVAVYGWNNAIAMICGNVCLWKGAPTTSLISVAVTKIIAKVLEDNKLPGAICSLTCGGADIGTAMAKDERVNLLSFTGSTQVGKQVGLMVQERFGRSLLELGGNNAIIAFEDADLSLVVPSALFAAVGTAGQRCTTARRLFIHESIHDEVVNRLKKAYAQIRVGNPWDPNVLYGPLHTKQAVSMFLGAVEEAKKEGGTVVYGGKVMDRPGNYVEPTIVTGLGHDASIAHTETFAPILYVFKFKNEEEVFAWNNEVKQGLSSSIFTKDLGRIFRWLGPKGSDCGIVNVNIPTSGAEIGGAFGGEKHTGGGRESGSDAWKQYMRRSTCTINYSKDLPLAQGIKFQ [ALDH7A1] | -0.224 | -1.8 | 0.167 | -0.107 | 54.3 °C | 54 °C
MEGLLHYINPAHAISLLSALNEERLKGQLCDVLLIVGDQKFRAHKNVLAASSEYFQSLFTNKENESQTVFQLDFCEPDAFDNVLNYIYSSSLFVEKSSLAAVQELGYSLGISFLTNIVSKTPQAPFPTCPNRKKVFVEDDENSSQKRSVIVCQSRNEAQGKTVSQNQPDVSHTSRPSPSIAVKANTNKPHVPKPIEPLHNLSLTEKSWPKDSSVVYAKSLEHSGSLDDPNRISLVKRNAVLPSKPLQDREAMDDKPGVSGQLPKGKALELALKRPRPPVLSVCSSSETPYLLKETNKGNGQGEDRNLLYYSKLGLVIPSSGSGSGNQSIDRSGPLVKSLLRRSLSMDSQVPVYSPSIDLKSSQGSSSVSSDAPGNVLCALSQKSSLKDCSEKTALDDRPQVLQPHRLRSFSASQSTDREGASPVTEVRIKTEPSSPLSDPSDIIRVTVGDAATTAAASSSSVTRDLSLKTEDDQKDMSRLPAKRRFQADRRLPFKKLKVNEHGSPVSEDNFEEGSSPTLLDADFPDSDLNKDEFGELEGTRPNKKFKCKHCLKIFRSTAGLHRHVNMYHNPEKPYACDICHKRFHTNFKVWTHCQTQHGIVKNPSPASSSHAVLDEKFQRKLIDIVREREIKKALIIKLRRGKPGFQGQSSSQAQQVIKRNLRSRAKGAYICTYCGKAYRFLSQFKQHIKMHPGEKPLGVNKVAKPKEHAPLASPVENKEVYQCRLCNAKLSSLLEQGSHERLCRNAAVCPYCSLRFFSPELKQEHESKCEYKKLTCLECMRTFKSSFSIWRHQVEVHNQNNMAPTENFSLPVLDHNGDVTGSSRPQSQPEPNKVNHIVTTKDDNVFSDSSEQVNFDSEDSSCLPEDLSLSKQLKIQVKEEPVEEAEEEAPEASTAPKEAGPSKEASLWPCEKCGKMFTVHKQLERHQELLCSVKPFICHVCNKAFRTNFRLWSHFQSHMSQASEESAHKESEVCPVPTNSPSPPPLPPPPPLPKIQPLEPDSPTGLSENPTPATEKLFVPQESDTLFYHAPPLSAITFKRQFMCKLCHRTFKTAFSLWSHEQTHN [ZBTB21] | 0.647 | 0.374 | -0.0999 | -0.0564 |  | 51.7 °C
MAEARKRRELLPLIYHHLLRAGYVRAAREVKEQSGQKCFLAQPVTLLDIYTHWQQTSELGRKRKAEEDAALQAKKTRVSDPISTSESSEEEEEAEAETAKATPRLASTNSSVLGADLPSSMKEKAKAETEKAGKTGNSMPHPATGKTVANLLSGKSPRKSAEPSANTTLVSETEEEGSVPAFGAAAKPGMVSAGQADSSSEDTSSSSDETDVEGKPSVKPAQVKASSVSTKESPARKAAPAPGKVGDVTPQVKGGALPPAKRAKKPEEESESSEEGSESEEEAPAGTRSQVKASEKILQVRAASAPAKGTPGKGATPAPPGKAGAVASQTKAGKPEEDSESSSEESSDSEEETPAAKALLQAKASGKTSQVGAASAPAKESPRKGAAPAPPGKTGPAVAKAQAGKREEDSQSSSEESDSEEEAPAQAKPSGKAPQVRAASAPAKESPRKGAAPAPPRKTGPAAAQVQVGKQEEDSRSSSEESDSDREALAAMNAAQVKPLGKSPQVKPASTMGMGPLGKGAGPVPPGKVGPATPSAQVGKWEEDSESSSEESSDSSDGEVPTAVAPAQEKSLGNILQAKPTSSPAKGPPQKAGPVAVQVKAEKPMDNSESSEESSDSADSEEAPAAMTAAQAKPALKIPQTKACPKKTNTTASAKVAPVRVGTQAPRKAGTATSPAGSSPAVAGGTQRPAEDSSSSEESDSEEEKTGLAVTVGQAKSVGKGLQVKAASVPVKGSLGQGTAPVLPGKTGPTVTQVKAEKQEDSESSEEESDSEEAAASPAQVKTSVKKTQAKANPAAARAPSAKGTISAPGKVVTAAAQAKQRSPSKVKPPVRNPQNSTVLARGPASVPSVGKAVATAAQAQTGPEEDSGSSEEESDSEEEAETLAQVKPSGKTHQIRAALAPAKESPRKGAAPTPPGKTGPSAAQAGKQDDSGSSSEESDSDGEAPAAVTSAQVIKPPLIFVDPNRSPAGPAATPAQAQAASTPRKARASESTARSSSSESEDEDVIPATQCLTPGIRTNVVTMPTAHPRIAPKASMAGASSSKESSRISDGKKQEGPATQVSKKNPASLPLTQAALKVLAQKASEAQPPVARTQPSSGVDSAVGTLPATSPQSTSVQAKGTNKLRKPKLPEVQQATKAPESSDDSEDSSDSSSGSEEDGEGPQGAKSAHTLGPTPSRTETLVEETAAESSEDDVVAPSQSLLSGYMTPGLTPANSQASKATPKLDSSPSVSSTLAAKDDPDGKQEAKPQQAAGMLSPKTGGKEAASGTTPQKSRKPKKGAGNPQASTLALQSNITQCLLGQPWPLNEAQVQASVVKVLTELLEQERKKVVDTTKESSRKGWESRKRKLSGDQPAARTPRSKKKKKLGAGEGGEASVSPEKTSTTSKGKAKRDKASGDVKEKKGKGSLGSQGAKDEPEEELQKGMGTVEGGDQSNPKSKKEKKKSDKRKKDKEKKEKKKKAKKASTKDSESPSQKKKKKKKKTAEQTV [TCOF1] | -3.49 | -1.37 | -0.327 | 0.223 | 53.2 °C | 52.9 °C
MEVTGVSAPTVTVFISSSLNTFRSEKRYSRSLTIAEFKCKLELLVGSPASCMELELYGVDDKFYSKLDQEDALLGSYPVDDGCRIHVIDHSGARLGEYEDVSRVEKYTISQEAYDQRQDTVRSFLKRSKLGRYNEEERAQQEAEAAQRLAEEKAQASSIPVGSRCEVRAAGQSPRRGTVMYVGLTDFKPGYWIGVRYDEPLGKNDGSVNGKRYFECQAKYGAFVKPAVVTVGDFPEEDYGLDEI [TBCB] | -0.00262 | 0.00665 | 0.266 | 0.119 | 49.5 °C | 50.2 °C
ATP5H | -5.39 | -6.92 | 0.0908 | 0.46 | 54.9 °C | 52.9 °C
MQAERGARGGRGRRPGRGRPGGDRHSERPGAAAAVARGGGGGGGGDGGGRRGRGRGRGFRGARGGRGGGGAPRGSRREPGGWGAGASAPVEDDSDAETYGEENDEQGNYSKRKIVSNWDRYQDIEKEVNNESGESQRGTDFSVLLSSAGDSFSQFRFAEEKEWDSEASCPKQNSAFYVDSELLVRALQELPLCLRLNVAAELVQGTVPLEVPQVKPKRTDDGKGLGMQLKGPLGPGGRGPIFELKSVAAGCPVLLGKDNPSPGPSRDSQKPTSPLQSAGDHLEEELDLLLNLDAPIKEGDNILPDQTSQDLKSKEDGEVVQEEEVCAKPSVTEEKNMEPEQPSTSKNVTEEELEDWLDSMIS [AVEN] | -0.264 | -2.4 | 0.312 | 0.0958 | 52.9 °C | 52.6 °C
